# Laboratory results taken from paper PMC5042576.
# Biological target: Actin filaments decorated with Tpm3.1 (chicken | human) (UniProt P68139)
# Chain of Mouse melanophilin with N-terminal SNAP tag and C-terminal Flag tag (Q91V27 whole entry): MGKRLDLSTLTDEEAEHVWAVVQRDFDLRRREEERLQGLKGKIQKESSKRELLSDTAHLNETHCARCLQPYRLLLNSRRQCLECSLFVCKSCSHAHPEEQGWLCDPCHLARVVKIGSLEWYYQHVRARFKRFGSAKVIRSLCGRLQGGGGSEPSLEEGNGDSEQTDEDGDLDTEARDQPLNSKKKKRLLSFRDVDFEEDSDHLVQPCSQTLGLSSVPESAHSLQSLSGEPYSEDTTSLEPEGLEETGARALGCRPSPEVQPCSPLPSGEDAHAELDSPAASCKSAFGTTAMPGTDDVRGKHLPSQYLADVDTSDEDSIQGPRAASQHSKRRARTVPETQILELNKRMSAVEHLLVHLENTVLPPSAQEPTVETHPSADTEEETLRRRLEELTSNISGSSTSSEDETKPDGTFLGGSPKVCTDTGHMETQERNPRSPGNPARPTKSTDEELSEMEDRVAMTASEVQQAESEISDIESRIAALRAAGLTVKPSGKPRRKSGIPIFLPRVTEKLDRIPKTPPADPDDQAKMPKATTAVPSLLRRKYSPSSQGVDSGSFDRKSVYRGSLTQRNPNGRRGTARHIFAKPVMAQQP
substance,measurement,value
Mouse melanophilin with N-terminal SNAP tag and C-terminal Flag tag (from UniProt Q91V27 1-590) (natural protein),fold affinity against actin–Tpm1.8 and actin–Tpm4.2,2 fold
